Assay results as given in article PMC3404614 (Biochimica et Biophysica Acta, 2012).

Test system: Akt
Test: pS473 Akt phosphorylation by pancreatic growth factors
Type: cell-based
Conditions: rat pancreatic acini; data not shown

B1: hepatocyte growth factor (protein, UniProt P17945 33-495; P17945 496-728, looked up)
Hepatocyte growth factor …: QKKRRNTLHEFKKSAKTTLTKEDPLVKIKTKKVNSADECANRCIRNKGFPFTCKAFVFDKSRKRCYWYPFNSMSSGVKKGFGHEFDLYENKDYIRNCIIGKGGSYKGTVSITKSGIKCQPWNSMIPHEHSFLPSSYRGKDLQENYCRNPRGEEGGPWCFTSNPEVRYEVCDIPQCSEVECMTCNGESYRGPMDHTESGKTCQRWDQQTPHRHKFLPERYPDKGFDDNYCRNPDGKPRPWCYTLDPDTPWEYCAIKMCAHSAVNETDVPMETTECIKGQGEGYRGTTNTIWNGIPCQRWDSQYPHKHDITPENFKCKDLRENYCRNPDGAESPWCFTTDPNIRVGYCSQIPKCDVSSGQDCYRGNGKNYMGNLSKTRSGLTCSMWDKNMEDLHRHIFWEPDASKLTKNYCRNPDDDAHGPWCYTGNPLVPWDYCPISRCEGDTTPTIVNLDHPVISCAKTKQLR
Hepatocyte growth factor beta …: VVNGIPTQTTVGWMVSLKYRNKHICGGSLIKESWVLTARQCFPARNKDLKDYEAWLGIHDVHERGEEKRKQILNISQLVYGPEGSDLVLLKLARPAILDNFVSTIDLPSYGCTIPEKTTCSIYGWGYTGLINADGLLRVAHLYIMGNEKCSQHHQGKVTLNESELCAGAEKIGSGPCEGDYGGPLICEQHKMRMVLGVIVPGRGCAIPNRPGIFVRVAYYAKWIHKVILTYKL
  pS473 Akt phosphorylation: stimulated pS473 Akt phosphorylation
